Patent US20140314667A1, “METHODS OF TREATING EPIDERMAL GROWTH FACTOR DELETION MUTANT VIII RELATED DISORDERS” (AMGEN INC., priority 2011, published 2014)
Each block holds one molecule with its values, some of them ahead of it.

Columns and labels:
EGFRvIII-peptide-OVA = target: T1, EGFRvIII-peptide-OVA (Homo sapiens, UniProt P00533, DELINS30-297G); assay: B-cell culture supernatant ELISA on EGFRvIII-peptide-OVA; assay type: binding
T1 construct: 207 μg of EGFRvIII PEP3 was reduced; host or cells: synthetic peptide, chemical conjugation
Description: B-cells from the above-discussed animals were harvested and cultured. Those secreting EGFRvIII-peptide specific antibodies were isolated as described in Babcook et al., Proc. Natl. Acad. Sci. USA, 93:7843-7848 (1996). ELISA was used to identify primary EGFRvIII-peptide-OVA-specific wells. About 5 million B-cells were cultured from XenoMouse animals in 24596 well plates at 500 or 150 or 50 cells/well, and were screened on EGFRvIII-peptide-OVA to identify the antigen-specific wells.
(§1) 244 of EGFRvIII-peptide-OVA-Elisa positive wells of OD >0.5 were screened again on EGFRvIII-peptide-OVA and on OVA to confirm that they were EGFRvIII-peptide specific.

OVA = target: T2, OVA (Gallus gallus, UniProt P01012); assay: B-cell culture supernatant ELISA on OVA (specificity control); assay type: binding; conditions: Table 3.8
T2 sequence (P01012 1-386): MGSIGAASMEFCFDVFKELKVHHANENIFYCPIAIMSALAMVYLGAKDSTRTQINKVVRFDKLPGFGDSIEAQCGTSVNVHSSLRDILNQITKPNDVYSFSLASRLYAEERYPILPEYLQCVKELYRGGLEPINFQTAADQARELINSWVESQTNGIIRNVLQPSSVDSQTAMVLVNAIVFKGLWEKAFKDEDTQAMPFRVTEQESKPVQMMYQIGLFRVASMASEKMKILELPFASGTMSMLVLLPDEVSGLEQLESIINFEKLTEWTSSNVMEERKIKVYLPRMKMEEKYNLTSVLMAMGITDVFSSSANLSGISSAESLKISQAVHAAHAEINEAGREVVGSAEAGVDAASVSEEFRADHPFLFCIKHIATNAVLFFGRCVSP
Excerpt: as §1

[1] = target: T3, native form of EGFRvIII stably expressed on NR6 cells (NR6 M cells) (Homo sapiens, UniProt P00533, DELINS30-297G); assay: Native cell binding assay by FMAT, NR6 M cells; conditions: total fluorescent intensity
T3 construct: NR6 M cells stably expressing full length EGFRvIII; expressed in transfected cells; host or cells: NR6 cells (NR6 M)
Description: EGFRvIII peptide-OVA-Elisa positive well supernatants were analyzed for their ability to bind to the native form of EGFRvIII stably expressed on NR6 cells (NR6 M cells) (See, Batra et al. Epidermal growth factor ligand-independent, unregulated, cell-transforming potential of a naturally occurring human mutant EGFRvIII gene. Cell Growth Differ. 6(10):1251-9 (1995)). NR 6 M cells were seeded at 8000 cells per well and incubated over night in 96 well FMAT plates. Media was then removed leaving 15 μl in the well. 15 μl B-cell culture supernatants were added and 15 μl anti-human IgG Fc Cy5 at 1 μg/ml final concentration added to wells. It is then left incubated at 4° C. for 2 hours. The cells were washed with 150 μl PBS, and fixed before reading on FMAT. The results were expressed as total fluorescent intensity (Table 3.8).

[2] = target: T4, NR6 Wt cells (NR6 cells expressing EGF receptor) (Homo sapiens, UniProt P00533); assay: Native cell binding assay by FMAT, NR6 Wt cells
T4 construct: expressed in transfected cells; host or cells: NR6 cells (NR6 Wt)
Excerpt: The same type of native binding assay was done on NR6 Wt cells (NR6 cells expressing EGF receptor) (See Batra et al. Epidermal growth factor ligand-independent, unregulated, cell-transforming potential of a naturally occurring human mutant EGFRvIII gene. Cell Growth Differ. 6(10):1251-9 (1995)) to eliminate the binding is due to binding to Wt receptor (Table 3.8). ABX-EGF was used as a positive control and PK 16.3.1 at the same concentration was used as a negative control antibody. 3 out the 134 NR6 M binders were binding strongly to NR6 Wt cells. 190 of the 244 wells bound EGFRvIII peptide in Elisa were also bound to the native form on cells.
In this example, binding of anti-EGFRvIII antibodies to NR6 M cells was measured. Specifically, unquantitated supernatants of XenoMax derived IgG1 recombinant antibodies were assayed for their ability to bind to NR6 M and NR6 WT cells. Cells were seeded at 10000/well and incubated overnight at 37 C in FMAT 96 well plates. Media was removed and 40 μl mini lipo supernatant (titrated down) was added, the cells were incubated on ice for 1 hr. […] The PK 16.3.1 antibody was used as a negative control. The cells were washed with Cold PBS, secondary antibody was added (SS Alexa antihuman IgG Fc) at 1 μg/ml, 40 μl/well and incubated on ice for 1 hr. The cells were then washed with Cold PBS and fixed and read by FMAT. All antibodies were tested for specificity for binding by counter screening against NR6 WT cells.

[3] = target: T5, EGFRvIII receptor on NR6 M cells (Homo sapiens, UniProt P00533, DELINS30-297G); assay: Internalization assay (FMAT, glutathione) of B cell culture supernatants; assay type: cell-based
T5 construct: NR6 M cells stably expressing full length EGFRvIII; expressed in transfected cells; host or cells: NR6 cells (NR6 M)
Description: The top 60 native binding B cell culture supernatants were further assayed for their ability to internalize the receptor. NR6 M cells were seeded at 8000 cells/well into 96 well FMAT plates and incubated overnight. Media was removed and 10-15 μl B-Cell culture supernatant in a total volume of 30 μl media, in duplicate was added. Next, 15 μl of secondary antibody (SS Alexa 647 anti-human IgG Fab at 1.5 μg/ml final concentration) was added and the mixture was incubated on ice for 1 hr. An irrelevant B-Cell Culture supernatant was used to see the effect of the culture media. Human anti-EGFRvIII mAb 13.2.1 was used as a positive control starting at 1 μg/ml (final concentration) and negative control was PK 16.3.1 (human anti-KLH IgG2 antibody) at the same concentration. After incubation, the cells were washed with cold PBS, 50 μl media was added to all of the wells, one of the duplicates were incubated at 37° C. for 30 mins while the other duplicate remained on ice. After the incubations media was removed, 100 ul of cold 50 mM glutathione was added to the set incubated at 37° C. and 100 μl of cold media added to the other set, both sets were then left on ice for 1 hr. The cells were then washed with 100 μl cold PBS and then fixed with 1% paraformaldehyde and read in FMAT. The results were expressed as % internalized, calculated as total fluorescence in the presence of glutathione/total fluorescence in the absence of glutathione×100.

[4] = target: T6, EGFRvIII receptor in NR6 M cells (Homo sapiens, UniProt P00533, DELINS30-297G); assay: Internalization of EGFRvIII receptor by recombinant mAbs (FACS); assay type: cell-based; conditions: 0.25 μg/ml antibody, 1 hr
T6 construct: NR6 M cells stably expressing full length EGFRvIII; expressed in transfected cells; host or cells: NR6 cells (NR6 M)
Description: XenoMax derived IgG1 recombinant antibodies were expressed, purified and quantitated as described previously. Antibodies were further assayed for their ability to internalize the EGFRvIII receptor in NR6 M cells. […] The cells were washed with cold 10% FCS in PBS and secondary antibody (SS Alexa antihuman IgG Fab) at 3 μg/ml Fab was added and incubated for 7 mins on ice. The cells were washed with cold 10% FCS in PBS once and then resuspended in cold media. Next, two sets of the triplicate were incubated at 37° C. and the remaining set was incubated at 4° C. for 1 hr. After that the cells incubated at 4° C. and one set of the cells incubated at 37° C. were treated with glutathione (as previously mentioned) for 1 hr on ice. Then the cells were washed and resuspended in 100 μl of cold 1% FCS in PBS and analyzed by FACS. The % internalization was calculated from the geometric mean obtained from the FACS analysis [(mean at 37° C. with glutathione−mean at 4° C. with glutathione)/(mean at 37° C. without glutathione−mean at 4 C with glutathione)].

[5] = target: T7, EGFRvIII expressing cells (H1477) (Homo sapiens, UniProt P00533, DELINS30-297G); assay: Selectivity for EGFRvIII expressing cells compared to ABX-EGF; assay type: binding
T7 construct: host or cells: H1477 cells

1′ VIII-pep-OVA OD (EGFRvIII-peptide-OVA; Table 3.8): 2.1501
2′ VIII-pep-OVA OD (EGFRvIII-peptide-OVA; Table 3.8): 2.8208
OVA OD (OVA): 0.1515
FMAT native binding to NR6 M cells [1]: 84024
FMAT native binding to NR6 Wt cells ([2]; total fluorescent intensity): 0
% internalized, (glut+/glut−) × 100 ([3]; 37° C. for 30 mins): 31.5%
With glutathione FL1xcount ([3]; 37° C. for 30 mins, 50 mM glutathione): 8708
No glutathione FL1xcount ([3]; kept on ice, no glutathione): 27648
B1: 129A7: XenoMax derived anti-EGFRvIII antibody, heavy chain of 124 (SEQ ID NO: 13), light chain of 123 (SEQ ID NO: 29) (antibody, listed as Homo sapiens, V domains shown)
VH: QVQLVESGGGVVQPGRSLRLSCAASGFTLSSYGMHWVRQAPGKGLEWVAVMSYDGSKEDYADSVKGRFTISRDNSENTLYLQMNSLRAEDTAVYYCVSEGYCSSRSCYKYYYYGMDVWGQGTTVTVSS
VL: DIVMTQSPLSLPVTPGEPASISCRSSQSLLYRNGNNYLDWYLQKPGQSPQLLIYLGSNRASGVPDRFSGSGSGTDFTLNISRVEAEDVGHYYCMQALQTPRTFGQGTKVEIK

binding with the pep3 (EGFRvIII-peptide-OVA; XenoMax approach, in words): highly specific
FACS Geometric mean With glutathione 4° C. [4]: 4.88
FACS Geometric mean With glutathione 37° C. [4]: 19.23
selectivity for EGFRvIII expressing cells (H1477) as compared to ABX-EGF [5]: superior selectivity
B2: 139: XenoMax derived anti-EGFRvIII antibody, SEQ ID NO: 10/25 (antibody, listed as Homo sapiens, V domains shown)
VH: EVQVLESGGGLVQPGGSLRLSCAASGFTFSSYAMSWVRQAPGKGLEWVSAISGSGGSTNYADSVKGRFTISRDNSKNTLYLQMNSLRAEDTAVYYCAGSSGWSEYWGQGTLVTVSS
VL: DIQMTQSPSSLSASVGDRVTITCRASQGIRNNLAWYQQKPGKAPKRLIYAASNLQSGVPSRFTGSGSGTEFTLIVSSLQPEDFATYYCLQHHSYPLTSGGGTKVEIK
cross-reactivity with wild type EGFR ([2]; XenoMax approach, in words): limited cross-reactivity with wild type EGFR
